Where no end group is shown, it is not given here.
Conditions: rat, in vivo

## fluorescence-labeled UCN: UCN labeled with the Alexa Fluor 488 dye using Microscale Protein Labeling Kit (DNPSLSIDLTFHLLRTLLELARTQSQRERAEQNRIIFDSV; ends and bridges not checked; also: Alexa Fluor 488 label, site not given here; UniProt P55089 83-122, looked up)
  penetration from lateral ventricle into striatal parenchyma: co-localized in cell nuclei of the striatum on the ipsilateral
